Here are results for 1 molecule from article PMC12170185, “Dynamic RNA binding and unfolding by nonsense-mediated mRNA decay factor UPF2” (RNA, 2024).

Experiment [1] has as its target T1, UPF2L (near full-length UPF2, residues 121-1227) (UniProt Q9HAU5 121-1227).
T1 construct: Construct from Neu-Yilik et al. 2017; also called up-frameshift protein 2; source: E. coli BL21 Rosetta (DE3), purified (Ni-NTA, heparin, SEC)
T1 sequence (looked up): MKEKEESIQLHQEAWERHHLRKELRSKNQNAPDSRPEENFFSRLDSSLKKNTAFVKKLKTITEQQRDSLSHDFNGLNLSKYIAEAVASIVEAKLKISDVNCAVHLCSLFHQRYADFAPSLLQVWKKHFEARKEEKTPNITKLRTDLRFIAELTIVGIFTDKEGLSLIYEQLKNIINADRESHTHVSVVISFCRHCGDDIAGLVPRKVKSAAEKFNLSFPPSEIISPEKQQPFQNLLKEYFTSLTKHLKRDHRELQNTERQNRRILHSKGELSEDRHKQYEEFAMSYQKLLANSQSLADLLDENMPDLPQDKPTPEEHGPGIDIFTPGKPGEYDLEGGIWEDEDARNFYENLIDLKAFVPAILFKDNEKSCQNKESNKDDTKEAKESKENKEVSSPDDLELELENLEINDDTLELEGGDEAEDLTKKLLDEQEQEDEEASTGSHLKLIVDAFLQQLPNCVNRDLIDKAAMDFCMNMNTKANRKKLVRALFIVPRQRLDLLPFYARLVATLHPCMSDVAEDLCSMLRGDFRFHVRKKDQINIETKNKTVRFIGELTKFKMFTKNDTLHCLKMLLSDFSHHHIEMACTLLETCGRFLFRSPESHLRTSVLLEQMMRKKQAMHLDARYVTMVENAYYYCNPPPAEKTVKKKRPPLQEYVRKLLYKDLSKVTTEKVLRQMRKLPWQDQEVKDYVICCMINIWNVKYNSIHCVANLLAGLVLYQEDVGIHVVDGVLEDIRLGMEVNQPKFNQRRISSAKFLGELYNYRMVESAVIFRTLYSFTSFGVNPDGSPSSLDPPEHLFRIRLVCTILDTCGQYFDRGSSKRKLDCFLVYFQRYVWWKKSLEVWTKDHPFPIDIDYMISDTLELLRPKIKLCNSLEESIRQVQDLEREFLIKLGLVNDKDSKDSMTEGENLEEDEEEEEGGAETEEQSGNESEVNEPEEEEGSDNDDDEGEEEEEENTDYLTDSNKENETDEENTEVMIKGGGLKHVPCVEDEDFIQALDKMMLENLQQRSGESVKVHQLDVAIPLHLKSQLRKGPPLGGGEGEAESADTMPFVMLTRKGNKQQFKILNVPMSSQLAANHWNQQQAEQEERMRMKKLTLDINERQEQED
Description: native gel or EMSA; 250 nM HEX-labelled hp-RNA mixed with the proteins, 1 h on ice; native 4%-20% Tris-glycine gel, 45 min at 150 V, 4°C; HEX label of the RNA detected; RNA diluted in 25 mM HEPES pH 7.45, 100 mM NaCl, 5% glycerol. As to conditions: both partners purified.

Experiment [2] has as its target T2, UPF2 MIF4G domain-3 (residues 761-1054) (UniProt Q9HAU5 761-1054).
T2 construct: UPF2, third MIF4G domain, residues 761-1054; Construct from Kadlec et al. 2004; TEV site and His6 tag as said for m1; also called MIF4G-D3; D3; source: E. coli BL21 Rosetta (DE3), purified (Ni-NTA, heparin, SEC)
T2 sequence (looked up): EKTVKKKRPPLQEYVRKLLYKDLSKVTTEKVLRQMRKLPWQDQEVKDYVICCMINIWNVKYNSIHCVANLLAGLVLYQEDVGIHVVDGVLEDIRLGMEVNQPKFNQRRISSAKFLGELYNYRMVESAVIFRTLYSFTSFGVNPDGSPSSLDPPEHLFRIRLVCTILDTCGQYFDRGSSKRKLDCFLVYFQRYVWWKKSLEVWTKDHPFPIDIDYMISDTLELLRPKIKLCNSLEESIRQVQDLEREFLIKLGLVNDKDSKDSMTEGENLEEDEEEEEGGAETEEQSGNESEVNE
The experiment is described as above. As to conditions: both partners purified.

B1: UPF3B (residues 41-262) (domain or fragment, UniProt Q9BZI7 41-262, looked up)
chain: DRNKEKKEALSKVVIRRLPPTLTKEQLQEHLQPMPEHDYFEFFSNDTSLYPHMYARAYINFKNQEDIILFRDRFDGYVFLDNKGQEYPAIVEFAPFQKAAKKKTKKRDTKVGTIDDDPEYRKFLESYATDNEKMTSTPETLLEEIEAKNRELIAKKTTPLLSFLKNKQRMREEKREERRRREIERKRQREEERRKWKEEEKRKRKDIEKLKKIDRIPERDKL
notes: UPF3B residues 41-262: RNA-recognition motif, NOPS-Like domain and the first coiled coil-like domain; source: E. coli, purified as described (Bufton et al. 2022)
B1: the binding result in experiment [1] and in experiment [2] was “binds” throughout.
